Measured values taken from US20080311122A1, “Antagonists of Hmgb1 and/or Rage and Methods of Use Thereof” (Medimmune, LLC, priority 2005, published 2008).
Entries after “also recorded” stand apart in the source; their conditions may differ.

Assays:
[1] = biological target: T1, HMG1 (recombinant, native; immobilized, soluble) (Homo sapiens, UniProt P09429); assay: Direct and sandwich (capture) ELISA comparing forms of HMG1; format: binding; conditions: capture ELISA
T1 construct: made in house; host or cells: E. coli
T1 sequence (P09429 1-215): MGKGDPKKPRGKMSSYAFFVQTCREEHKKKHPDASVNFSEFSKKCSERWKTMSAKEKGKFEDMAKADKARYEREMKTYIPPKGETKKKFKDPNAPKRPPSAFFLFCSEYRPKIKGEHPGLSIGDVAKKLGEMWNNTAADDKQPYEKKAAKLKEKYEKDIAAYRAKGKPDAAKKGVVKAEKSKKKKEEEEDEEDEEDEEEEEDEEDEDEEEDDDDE
Method in brief: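 Direct format: HMGB-1 coated at 5 μg/ml, human anti-HMG1 antibodies titrated, anti-human IgG-HRP, A450. Sandwich format: antibodies (from 20 μg/ml, serial dilutions) captured on anti-human IgG Fc, then soluble HMGB1 at 2 μg/ml (native 0.7 μg/ml), mouse anti-HMGB1 at 1 μg/ml, anti-mouse IgG-HRP, A450; steps 1 h, 37° C.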

[2] = tested on: LPS+HMG1 induced TNF-a release (TLR4 signaling); assay: Inhibition of HMG1 mediated enhancement of TLR4 signaling, LPS+HMG1 TNF-a release; format: cell-based, mouse
[3] = tested on: heat inactivated S. aureus induced peritonitis; assay: S. aureus mouse model of peritonitis; format: in vivo
Experimental: Induction of Peritonitis: Four-six week old female BALB/c mice were used. […] For determination of HMG1 levels on day 0 approximately 10^9 heat inactivated S. aureus (strain 8325-4) cells premixed with 20 mg of galactosamine or galactosamine alone in a 200 μl volume of PBS was administered i.p. A third group of animals was not challenged. Animals were euthanized at 2, 8, and 12 hours after challenge by CO2 inhalation and blood was collected by cardiac puncture. For the antibody treatment studies on day 0 approximately 10^9 heat inactivated S. aureus (strain 8325-4) cells premixed with 20 mg of galactosamine were administered i.p. in a 200 μl volume and the following treatments were administered i.p. in a 100 μl volume 30 minutes prior to challenge as shown in Table 7.
The animals were also weighed 2× weekly. Animals showing signs of significant morbidity were euthanized. On day 15 all surviving animals were euthanized (euthanized sooner if significant morbidity observed).

[4] = biological target: T2, native (thymus) HMG1 binding to RAGE/Fc (Bos taurus, UniProt P10103); assay: Inhibition of native HMG1 binding to Rage-Fc (ELISA); parameters: species or system bovine; conditions: at the concentrations tested
T2 construct: from tissue; host or cells: bovine (calf) thymus
T2 sequence (P10103 2-215 limits assumed): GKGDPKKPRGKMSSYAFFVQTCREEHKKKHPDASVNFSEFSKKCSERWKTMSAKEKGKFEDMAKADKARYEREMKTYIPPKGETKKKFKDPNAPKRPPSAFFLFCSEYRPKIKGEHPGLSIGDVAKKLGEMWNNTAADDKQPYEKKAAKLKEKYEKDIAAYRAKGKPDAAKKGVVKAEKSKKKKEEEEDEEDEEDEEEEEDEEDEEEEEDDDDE
Experimental: Inhibition of Native HMG1 Binding to Rage-Fc: Recombinant RAGE/Fc was coated on ELISA plate at 5 μg/mL, 0.1 mL/well. HMGB1 (0.5 μg/mL) was pre-incubated with anti-HMGB1 mAb clone E-11 or G-4 at different concentrations for 0.5 hr. After blocking the plate, anti-HMGB1 mAb pre-incubated HMGB1 was added to RAGE/Fc coated plate for 2 hr. RAGE bound HMGB1 was detected with Biotin labeled anti-HMGB1 pAb.

B1: S16: human anti-HMG1 antibody, ATCC PTA-6259; VL/VH aa SEQ ID NO: 13/15 (antibody, listed as Homo sapiens, V domains shown)
VH: EVQLLESGGGLVQPGGSLRLSCAASGFTFSWYSMLWVRQAPGKGLEWVSYISPSGGFTNYADSVKGRFTISRDNSKNTLYLQMNSLRAEDTAVYYCARWDYNSGWYYDHWGQGTLVTVSS
VL: AQDIQMTQSPDTLSLSPGERATLSCRASQSVNSRNLAWYQQKPGQAPRLLIYGASTRATGIPDRFSGSVSGTEFTLTISSLQPDDFATYYCQQYNSYFTFGQGTKLEIK
- binding to native nuclear, necrotic (released) and activated HMG1 [1]: little difference in binding to the various native forms of HMG1

B2: E11: human anti-HMG1 antibody, recognizes HMG1 A-Box; VL/VH aa SEQ ID NO: 24/26 (antibody, listed as Homo sapiens, V domains shown)
VH: EVQLLESGGGLVQPGGSLRLSCAASGFTFSRYQMNWVRQAPGKGLEWVSSISPSGGHTHYADSVKGRFTISRDNSKNTLYLQMNSLRAEDTAVYYCAKDGRQGKISTVDHWGQGTLVTVSS
VL: AQDIQMTQSPGTLSLSPGERATLSCRASQSVRSNFLAWYQQKPGQAPRLLIYGASRRASGIPDRFSGSGFGADFTLSISRLEPEDFAVYYCQQYGSSPNTFGQGSRVEIK
- inhibition of TNF-a release induced by LPS+HMG1 [2]: inhibits the release of TNF-a induced by LPS+HMG1; also recorded: could be blocked; also recorded: inhibit the release of TNFa induced by LPS+HMG1
- inhibition of signaling by LPS alone [2]: inhibit signaling by LPS alone
- mice survived ([3]; lethal dose of heat inactivated S. aureus): 8%
- in vivo S. aureus ([3]; percent protection, isotype control subtracted): 8%
- block of native (thymus) HMG1 binding to RAGE [4]: significant ability to block the binding of native HMG1 to RAGE; also recorded: can block native HMG1 binding
